Columns and labels:
[1] = system: shrews; assay: food intake and body weight, semaglutide, GIP-085 and combo, shrews; format: in vivo, Suncus murinus; details: semaglutide alone, 500 nmol/kg ip; n = 8
From the text: (§1) Adult male shrews (S. murinus) weighing ~50 to 80 g (n = 84 total) were bred and maintained in the De Jonghe Lab (University of Pennsylvania). These animals were offspring from a colony previously maintained at the University of Pittsburgh Cancer Institute (C. Horn); a Taiwanese strain was derived from stock originally supplied by the Chinese University of Hong Kong. Shrews were singly housed in plastic cages (37.3 cm by 23.4 cm by 14 cm, Innovive) under a 12-hour/12-hour light/dark cycle in a temperature-controlled and humidity-controlled environment. Animal were fed ad libitum with a mixture of feline (75%, Laboratory Feline Diet 5003, Lab Diet) and mink food (25%, High Density Ferret Diet 5LI4, Lab Diet) and had ad libitum access to tap water except where noted.
First, we compared the effects of semaglutide (500 nmol/kg), GIP-085 (300 nmol/kg), GIP-085/semaglutide, or vehicle on food intake and body weight in the same animals (n = 8, ~54 ± 2 g) using in a within-subject, counterbalanced design. This experiment was conducted as described above. Each treatment was 7 days apart.

[2] = system: DIO GIPR KO mice; assay: chronic treatment, food intake and body weight, DIO GIPR KO mice; format: in vivo, mouse; details: inferred from GIPR KO DIO mice
From the text: DIO adult male C57BL/6 mice (Taconic) C57BL/6 (n = 23, weighing ~43 g at arrival), GLP-1R KO (germline knockout line: 11549, n = 24, weighing ~38 g at arrival), and GIPR KO mice (germline knockout line: 2886, n = 24, weighing ~35 g at arrival) were used. Upon arrival, mice were individually housed and continued to be fed ad libitum on high-fat/high-sugar diet (60% fat diet, 12492, Research Diets).
GIPFA-085 (GIP-085), tirzepatide, and GLP-140 were designed and produced by Eli Lilly and Company. GIP-085, GLP-140, and semaglutide (Cayman Chemical) were dissolved in 40 mM tris-HCl buffer (pH 8) and 0.02% Tween 80. For the study in mice, all drugs were injected subcutaneously at a volume of 5 ml/kg of body weight. In rats, all drugs were injected intraperitoneally, at a volume of 1 ml/kg of body weight, except when noted. In shrews, all drugs were injected intraperitoneally at a volume of 10 ml/kg of body weight.
C57BL/6 wild-type (n = 23), GLP-1R KO (n = 24), and GIPR KO mice (n = 24) received daily subcutaneous administration of GIP-085 (300 nmol/kg), semaglutide (3 nmol/kg), GIP-085/semaglutide combo, or vehicle for 16 days. Food intake and body weight were manually measured daily. […] Body composition of mice was determined using quantitative nuclear magnetic resonance analysis (ECHO MRI, 3-1 Composition Analyzer; Echo Medical Systems). […]

[3] = system: DIO GIPR KO mice; assay: body composition (ECHO MRI), DIO GIPR KO mice; format: in vivo, mouse; details: 16 days daily sc, GIP-085 300 nmol/kg, semaglutide 3 nmol/kg, mean ± SEM, n=6 per group
Procedure: C57BL/6 wild-type (n = 23), GLP-1R KO (n = 24), and GIPR KO mice (n = 24) received daily subcutaneous administration of GIP-085 (300 nmol/kg), semaglutide (3 nmol/kg), GIP-085/semaglutide combo, or vehicle for 16 days. Food intake and body weight were manually measured daily. The average body weight at the start of the experiment was 43.7 ± 0.4 g for the wild-type group, 39.0 ± 0.6 g for the GLP-1R KO group, and 36.5 ± 0.4 g for the GIPR KO group. Body composition of mice was determined using quantitative nuclear magnetic resonance analysis (ECHO MRI, 3-1 Composition Analyzer; Echo Medical Systems). At the end of the experiment, the animals were euthanized by CO2.

[4] = system: adults with overweight or obesity; set-up: method as in 2 sources, ref 4 = [4]; PMID 33567185; doi:10.1056/NEJMoa2032183; 4 J. P. H. Wilding , R. L. Batterham , S. Calanna , M. Davies , L. F. Van Gaal , I. Lingvay , B. M. McGowan , J. Rosenstock , M. T. D. Tran , T. A. Wadden , S. Wharton , K. Yokote , N. Zeuthen , R. F. ||| ref 6 = [6]; PMID 34514682; doi:10.1111/dom.14551; 6 S. Wharton , S. Calanna , M. Davies , D. Dicker , B. Goldman , I. Lingvay , O. Mosenzon , D. M. Rubino , M. Thomsen , T. A. Wadden , S. D. Pedersen , Gastrointestinal tolerability of once-weekly sem; details: cited from earlier work
[5] = system: shrews; assay: emesis, semaglutide dose-response, shrews; format: in vivo, Suncus murinus; details: for animals exhibiting emesis / emesis, dose dependence: 120 min; for animals exhibiting emesis: n = 9; for latency to first emetic episode: average of shrews that exhibited emesis, ± SEM; for emesis, dose dependence: 10, 50, 100 and 500 nmol/kg ip
From the text: as §1
To assess the emetogenic effects of semaglutide treatment, shrews (n = 9) were habituated to intraperitoneal injections and to clear plastic observation chambers (23.5 cm by 15.25 cm by 17.8 cm) for two consecutive days prior to experimentation. The animals were injected intraperitoneally with semaglutide (10, 50, 100, and 500 nmol/kg) or vehicle and then video recorded (Vixia HF-R62, Canon) for 120 min. After 120 min, the animals were returned to their cages. Treatment rounds were conducted within-subject and separated by 7 days. Analysis of emetic episodes was measured by a trained observer blinded to treatment groups. Emetic episodes were characterized by strong rhythmic abdominal contractions associated with either oral expulsion from the GI tract (i.e., vomiting) or without the passage of materials (i.e., retching). Latency to the first emetic episode, the total number of emetic episodes, and the number of emetic episodes per minute were quantified.

[6] = system: shrews; assay: IPGTT, semaglutide, shrews; format: in vivo, Suncus murinus; details: 10, 100 and 500 nmol/kg ip, 30 min before glucose 2 g/kg ip, 20 min post-glucose, n = 8 per group
From the text: as §1
The protocol for performing an IPGTT in shrews (n = 16) was previously described ([27]). Briefly, each shrews received intraperitoneal injection of semaglutide (10, 100, and 500 nmol/kg) or vehicle (10 ml/kg body weight) followed 30 min later by a glucose bolus injection [2 g/kg, intraperitoneally (ip)]. Blood glucose readings were taken at −30, 0, 20, 40, 60, and 120 min post-glucose administration. This study was conducted using a partial within-subject design, with each animal receiving two treatments separated by a 7-day interval.

semaglutide
body weight [1]: body weight loss | food intake [1]: induced anorexia | cross-reactivity at the GIPR [2]: lack of cross-reactivity | total fat mass at the end of the experiment ([3]; Veh: 14.2±0.6g): 8.1 ± 0.6 g | total lean mass at the end of the experiment ([3]; Veh: 22.3±0.5g): 20.9 ± 0.3 g | patients reporting nausea ([4]; STEP 1): 44.2% | patients reporting vomiting ([4]; STEP 1): 24.8% | weight loss ([4]; people with overweight/obesity without type 2 diabetes): double-digit weight loss | participants with dose reduction or temporary treatment interruption (GI side effects) ([4]; pooled STEP 1-3 trials): ~ 12.5% | permanent treatment discontinuation (GI side effects) ([4]; pooled STEP 1-3 trials): ~ 4.3% | animals exhibiting emesis ([5]; 100 nmol/kg ip): Twenty-two | latency to first emetic episode ([5]; 100 nmol/kg ip): 63 ± 14 min | animals exhibiting emesis ([5]; 500 nmol/kg ip): 67% | latency to first emetic episode ([5]; 500 nmol/kg ip): 58 ± 6 min | emesis, dose dependence [5]: dose-dependently induced emesis | emesis, dose dependence ([5]; listed as Semaglutide): causes emesis in a dose-related manner | blood glucose levels following glucose [6]: significantly reduced glucose levels in a dose-dependent manner | blood glucose levels following glucose ([6]; listed as Semaglutide): dose-dependently suppresses blood glucose levels

Source: publication PMC12175907 (Science Advances, 2025)
